Data taken from article PMC3213152.

How the values were obtained:
[1] = biological target: Rck G118D mutant (Salmonella enterica serovar Typhimurium) (UniProt Q04817); assay: flow cytometry on cells; data not shown: FACS analysis with purified C4BP on the Rck G118D mutant against wt Rck
[2] = biological target: Rck, outer membrane protein of Salmonella enterica serovar Typhimurium, expressed on E. coli BL21(DE3) from plasmid pRck (Salmonella enterica serovar Typhimurium strain SL1344) (UniProt Q04817); assay: flow cytometry on cells; E. coli BL21(DE3) pRck in DPBS with purified C4BP (increasing amounts) or with wt C4BP or recombinant CCP deletion mutants at 10 µg/ml, 37°C; detected with sheep polyclonal anti-human C4BP; MFI of wt C4BP set to 100%
[3] = biological target: Rck, outer membrane protein of Salmonella enterica serovar Typhimurium, expressed on E. coli BL21(DE3) from plasmid pRck (Salmonella enterica serovar Typhimurium strain SL1344) (UniProt Q04817); assay: flow cytometry on cells; E. coli BL21(DE3) pRck with wt C4BP or the CCP7 or CCP8 deletion mutant (10 µg/ml); detected with monoclonal anti-C4BP MK104, specific for CCP1 of the α-chain; MFI of wt C4BP set to 100%

Row | Substance | fold less C4BP bound than by wt Rck [1] | percent reduction in binding against wt C4BP [2] | percent reduction in binding against wt C4BP [3]
1 | Human C4b-binding protein (C4BP) (from UniProt P04003 49-597; P20851 18-252) (complex) | 24 fold | – | –
2 | Recombinant human C4BP mutant with CCP7 of the α-chain deleted (from UniProt P04003 49-597) (complex) | – | 70% | 84%
3 | Recombinant human C4BP mutant with CCP8 of the α-chain deleted (from UniProt P04003 49-597) (complex) | – | 60% | 78%
